Results reported in article PMC4342108.
Residue numbers refer to the chain shown, from its start.

What was measured:
Test in all cases: SPR
tCid1 mutant 1 = molecular target: T1, tCid1 mutant 1 (Schizosaccharomyces pombe, UniProt O13833 33-405, K133A;R137A)
T1 sequence: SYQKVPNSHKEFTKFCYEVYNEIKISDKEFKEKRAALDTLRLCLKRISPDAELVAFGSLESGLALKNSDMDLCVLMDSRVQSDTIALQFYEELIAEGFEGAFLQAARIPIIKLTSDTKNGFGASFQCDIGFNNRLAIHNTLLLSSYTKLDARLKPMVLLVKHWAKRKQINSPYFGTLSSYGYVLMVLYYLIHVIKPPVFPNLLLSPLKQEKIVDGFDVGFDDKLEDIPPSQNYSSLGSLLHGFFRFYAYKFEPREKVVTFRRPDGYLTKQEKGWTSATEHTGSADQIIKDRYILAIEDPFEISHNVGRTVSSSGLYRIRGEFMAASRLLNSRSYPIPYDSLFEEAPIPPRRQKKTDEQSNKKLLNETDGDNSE

tCid1 (wild type) = molecular target: T2, tCid1 (wild type) (Schizosaccharomyces pombe, UniProt O13833 33-405)
T2 sequence: T1 sequence with A101K, A105R

tCid1 mutant 2 = molecular target: T3, tCid1 mutant 2 (Schizosaccharomyces pombe, UniProt O13833 33-405, K321A;R323A)
T3 sequence: T1 sequence with A101K, A105R, K289A, R291A

tCid1 mutant 3 = molecular target: T4, tCid1 mutant 3 (Schizosaccharomyces pombe, UniProt O13833 33-405, R277A;K282A)
T4 sequence: T1 sequence with A101K, A105R, R245A, K250A

Q: With GAUUUGACGUUGGUUUUGACG (ssRNA) [21 nt SPR RNA] as the binder, how does the Kd (tCid1 mutant 1) read?
A: Its Kd is ~200 nM.

Q: What about the Kd (tCid1 (wild type)) of the same binder?
A: The Kd was ~100 nM.

Q: What about the Kd (tCid1 mutant 2) of the same binder?
A: The Kd was ~450 nM.

Q: And the Kd (tCid1 mutant 3)?
A: The Kd was ~410 nM.
